From patent US20110217734A1 (UNIVERSITY OF ILLINOIS AT URBANA CHAMPAIGN, published 2011) come the findings set out here.

The data set concerns the molecule itself. Briefly: size-exclusion chromatography, self-association. A general note: SEC sorts molecules by how far they enter the pores of the column.

B1: RhiG-C-His (enzyme)
chain: MKMQLIDCTLRDGGNFNNWFFSAEDINQIILHLDKANVNIIEIGYIGGSGSNKEKSVGSLANCTPELLEQLPKTIHSHLAAMVVPSVCELHLLDNLNPQLIPWIRVASYPHNAEDALPYIEYLKNRGFHVSFNVMAASYIEEKDMAELAKKSHVFGADVFYMADSFGNLTPDGVRKRVAAAFDQADCPVGFHGHNNLGLAFTNALEAMDAGATFIDTSLCGMARGAGNLPTEQFVSAIHHWDKFGDIPYKLHPILTAAEYVLSSILSSPMKISTPEIISGISNIHYYFYDLVISKCREVNLDPLQVSTLLGQTLPKRVDMSYIESVIDQNFRQESAK
notes: Recombinant protein expressed in E. coli BL21(DE3), 38.7 kDa per chain; Size-exclusion chromatography gave a native MW of about 75 kDa (homodimer); also called RhiG purified as a C-terminal fusion with a hexahistidine tag; not shown: C-terminal hexahistidine tag from the pET26b vector
On to B1, for which the binding result is on record as “binds”.
